B1: p6_9H_KDKCKXX (designed binder)
chain: MGFQGPLGSHMTISPKEKEKIAIHEAGHDLMGLVSDDDDKVHKISIIPRGMALGVTQQLPIEDKHIYDKKDLYNKILVLLGGRAAEEVFFGKDGITTGAENDLQRATDLAYRMVSMWGMSDKVGPIAIRRVANPFLGGMTTAVDTSPDLLREIDEEVKRIITEQYEKAKAIVEEYKLPLKFVVAALLHSETILCSLFAEVFKTFGIELKDKCK
notes: p6_9H with 33 C-terminal residues (including 6xHis) removed
B2: p6_9 (designed binder, not shown: small tags and cut ends)
chain: MGFQGPLGSHMTISPKEKEKIAIHEAGHDLMGLVSDDDDKVHKISIIPRGMALGVTQQLPIEDKHIYDKKDLYNKILVLLGGRAAEEVFFGKDGITTGAENDLQRATDLAYRMVSMWGMSDKVGPIAIRRVANPFLGGMTTAVDTSPDLLREIDEEVKRIITEQYEKAKAIVEEYKLPLKFVVAALLESETILCSLFAEVFKTFGIELKDKCKKEELFDKDRKSEENKELKSEEVKEEVV
notes: Alpha helical hexamer (C6), layer group P 6; Carries A29D from gene synthesis; also called Original Design p6_9 (Control); precursor to p6_9H
B3: p6_9 L193T (designed binder, not shown: small tags and cut ends)
chain: MGFQGPLGSHMTISPKEKEKIAIHEAGHDLMGLVSDDDDKVHKISIIPRGMALGVTQQLPIEDKHIYDKKDLYNKILVLLGGRAAEEVFFGKDGITTGAENDLQRATDLAYRMVSMWGMSDKVGPIAIRRVANPFLGGMTTAVDTSPDLLREIDEEVKRIITEQYEKAKAIVEEYKLPLKFVVAALLESETITCSLFAEVFKTFGIELKDKCKKEELFDKDRKSEENKELKSEEVKEEVV
B4: p6_9 E188H, F218Y (designed binder, not shown: small tags and cut ends)
chain: MGFQGPLGSHMTISPKEKEKIAIHEAGHDLMGLVSDDDDKVHKISIIPRGMALGVTQQLPIEDKHIYDKKDLYNKILVLLGGRAAEEVFFGKDGITTGAENDLQRATDLAYRMVSMWGMSDKVGPIAIRRVANPFLGGMTTAVDTSPDLLREIDEEVKRIITEQYEKAKAIVEEYKLPLKFVVAALLHSETILCSLFAEVFKTFGIELKDKCKKEELYDKDRKSEENKELKSEEVKEEVV
notes: p6_9H (which already carries E188H) with F218Y
B5: p6_9 L193T, A198V, S189K, cut 6xHis (designed binder)
chain: MGFQGPLGSHMTISPKEKEKIAIHEAGHDLMGLVSDDDDKVHKISIIPRGMALGVTQQLPIEDKHIYDKKDLYNKILVLLGGRAAEEVFFGKDGITTGAENDLQRATDLAYRMVSMWGMSDKVGPIAIRRVANPFLGGMTTAVDTSPDLLREIDEEVKRIITEQYEKAKAIVEEYKLPLKFVVAALLEKETITCSLFVEVFKTFGIELKDKCKKEELFDKDRKSEENKELKSEEVKEEVV
B6: p6_9H (designed binder, not shown: small tags and cut ends)
chain: MGFQGPLGSHMTISPKEKEKIAIHEAGHDLMGLVSDDDDKVHKISIIPRGMALGVTQQLPIEDKHIYDKKDLYNKILVLLGGRAAEEVFFGKDGITTGAENDLQRATDLAYRMVSMWGMSDKVGPIAIRRVANPFLGGMTTAVDTSPDLLREIDEEVKRIITEQYEKAKAIVEEYKLPLKFVVAALLHSETILCSLFAEVFKTFGIELKDKCKKEELFDKDRKSEENKELKSEEVKEEVV
notes: Hexamer (C6), layer group P 6; also called E188H (p6_9H)
B7: p6_9 L193T, A198V (designed binder, not shown: small tags and cut ends)
chain: MGFQGPLGSHMTISPKEKEKIAIHEAGHDLMGLVSDDDDKVHKISIIPRGMALGVTQQLPIEDKHIYDKKDLYNKILVLLGGRAAEEVFFGKDGITTGAENDLQRATDLAYRMVSMWGMSDKVGPIAIRRVANPFLGGMTTAVDTSPDLLREIDEEVKRIITEQYEKAKAIVEEYKLPLKFVVAALLESETITCSLFVEVFKTFGIELKDKCKKEELFDKDRKSEENKELKSEEVKEEVV
B8: p6_9HM (designed binder, not shown: small tags and cut ends)
chain: MGFQGPLGSHMTISPKEKEKIAIHEAGHDLMGLVSDDDDKVHKISIIPRGMALGVTQQLPIEDKHIYDKKDLYNKILVLLGGRAAEEVFFGKDGITTGAENDLQRATDLAYRMVSMWGMSDKVGPIAIRRVANPFLGGMTTAVDTSPDLLREIDEEVKRIITEQYEKAKAIVEEYKLPLKFVVAALLHSETILCSLFAEMFKTFGIELKDKCKKEELFDKDRKSEENKELKSEEVKEEVV
notes: p6_9H (which already carries E188H) with V200M; also called E188H, V200M (p6_9HM)
B9: p6_9 T203V (designed binder, not shown: small tags and cut ends)
chain: MGFQGPLGSHMTISPKEKEKIAIHEAGHDLMGLVSDDDDKVHKISIIPRGMALGVTQQLPIEDKHIYDKKDLYNKILVLLGGRAAEEVFFGKDGITTGAENDLQRATDLAYRMVSMWGMSDKVGPIAIRRVANPFLGGMTTAVDTSPDLLREIDEEVKRIITEQYEKAKAIVEEYKLPLKFVVAALLESETILCSLFAEVFKVFGIELKDKCKKEELFDKDRKSEENKELKSEEVKEEVV
B10: p6_9 E188H, cut 6xHis (designed binder)
chain: MGFQGPLGSHMTISPKEKEKIAIHEAGHDLMGLVSDDDDKVHKISIIPRGMALGVTQQLPIEDKHIYDKKDLYNKILVLLGGRAAEEVFFGKDGITTGAENDLQRATDLAYRMVSMWGMSDKVGPIAIRRVANPFLGGMTTAVDTSPDLLREIDEEVKRIITEQYEKAKAIVEEYKLPLKFVVAALLHSETILCSLFAEVFKTFGIELKDKCKKEELFDKDRKSEENKELKSEEVKEEVV
notes: p6_9H with the 6xHis tag removed
B11: p6_9 E199L (designed binder, not shown: small tags and cut ends)
chain: MGFQGPLGSHMTISPKEKEKIAIHEAGHDLMGLVSDDDDKVHKISIIPRGMALGVTQQLPIEDKHIYDKKDLYNKILVLLGGRAAEEVFFGKDGITTGAENDLQRATDLAYRMVSMWGMSDKVGPIAIRRVANPFLGGMTTAVDTSPDLLREIDEEVKRIITEQYEKAKAIVEEYKLPLKFVVAALLESETILCSLFALVFKTFGIELKDKCKKEELFDKDRKSEENKELKSEEVKEEVV
B12: p6_9 L193T, S189K (designed binder, not shown: small tags and cut ends)
chain: MGFQGPLGSHMTISPKEKEKIAIHEAGHDLMGLVSDDDDKVHKISIIPRGMALGVTQQLPIEDKHIYDKKDLYNKILVLLGGRAAEEVFFGKDGITTGAENDLQRATDLAYRMVSMWGMSDKVGPIAIRRVANPFLGGMTTAVDTSPDLLREIDEEVKRIITEQYEKAKAIVEEYKLPLKFVVAALLEKETITCSLFAEVFKTFGIELKDKCKKEELFDKDRKSEENKELKSEEVKEEVV
B13: p6_9 E188H, L193T, A198V (designed binder, not shown: small tags and cut ends)
chain: MGFQGPLGSHMTISPKEKEKIAIHEAGHDLMGLVSDDDDKVHKISIIPRGMALGVTQQLPIEDKHIYDKKDLYNKILVLLGGRAAEEVFFGKDGITTGAENDLQRATDLAYRMVSMWGMSDKVGPIAIRRVANPFLGGMTTAVDTSPDLLREIDEEVKRIITEQYEKAKAIVEEYKLPLKFVVAALLHSETITCSLFVEVFKTFGIELKDKCKKEELFDKDRKSEENKELKSEEVKEEVV
notes: p6_9H (which already carries E188H) with L193T and A198V
B14: p6_9 L193T, A198V, S189K (designed binder, not shown: small tags and cut ends)
chain: MGFQGPLGSHMTISPKEKEKIAIHEAGHDLMGLVSDDDDKVHKISIIPRGMALGVTQQLPIEDKHIYDKKDLYNKILVLLGGRAAEEVFFGKDGITTGAENDLQRATDLAYRMVSMWGMSDKVGPIAIRRVANPFLGGMTTAVDTSPDLLREIDEEVKRIITEQYEKAKAIVEEYKLPLKFVVAALLEKETITCSLFVEVFKTFGIELKDKCKKEELFDKDRKSEENKELKSEEVKEEVV
B15: p6_9 E188H, D29A (designed binder, not shown: small tags and cut ends)
chain: MGFQGPLGSHMTISPKEKEKIAIHEAGHALMGLVSDDDDKVHKISIIPRGMALGVTQQLPIEDKHIYDKKDLYNKILVLLGGRAAEEVFFGKDGITTGAENDLQRATDLAYRMVSMWGMSDKVGPIAIRRVANPFLGGMTTAVDTSPDLLREIDEEVKRIITEQYEKAKAIVEEYKLPLKFVVAALLHSETILCSLFAEVFKTFGIELKDKCKKEELFDKDRKSEENKELKSEEVKEEVV
notes: p6_9H with the gene-synthesis mutation A29D reverted
B16: p6_9 E188R (designed binder, not shown: small tags and cut ends)
chain: MGFQGPLGSHMTISPKEKEKIAIHEAGHDLMGLVSDDDDKVHKISIIPRGMALGVTQQLPIEDKHIYDKKDLYNKILVLLGGRAAEEVFFGKDGITTGAENDLQRATDLAYRMVSMWGMSDKVGPIAIRRVANPFLGGMTTAVDTSPDLLREIDEEVKRIITEQYEKAKAIVEEYKLPLKFVVAALLRSETILCSLFAEVFKTFGIELKDKCKKEELFDKDRKSEENKELKSEEVKEEVV
B17: p6_9 A184S (designed binder, not shown: small tags and cut ends)
chain: MGFQGPLGSHMTISPKEKEKIAIHEAGHDLMGLVSDDDDKVHKISIIPRGMALGVTQQLPIEDKHIYDKKDLYNKILVLLGGRAAEEVFFGKDGITTGAENDLQRATDLAYRMVSMWGMSDKVGPIAIRRVANPFLGGMTTAVDTSPDLLREIDEEVKRIITEQYEKAKAIVEEYKLPLKFVVSALLESETILCSLFAEVFKTFGIELKDKCKKEELFDKDRKSEENKELKSEEVKEEVV
B18: p3Z-42 Human Acylphosphatase fusion (designed binder)
chain: MAEGNTLISVDYEIFGKVQGVFFRKHTQAEGKKLGLVGWVQNTDRGTVQGQLQGPISKVRHMQEWLETRGSPKSHIDKANFNNEKVILKLDYSDFQIVKGSGSGSGGMHNNRLQLSRLERVYQSEQAEKLLLAGVMLRDPARFDLRGSLTHGRDVEIDTNVIIEGNVSLGNRVKIGTGCVIKNSAIGDDCEISPYTVVEDAVLAAACTIGPFARLRPGAVLLEGAHVGNFVEMKKAVLGKGSKAGHLTYLGDAAIGDNVNIGAGTITCNYDGANKFTTIIGDDVFVGSDTQLVAPVSVGKGATIAAGTTVTRNVGANALAISRVPQTQKEGWRRPVKKK
B19: p3Z-42 Human Glutaredoxin fusion (designed binder)
chain: MGAGTAQEFVNCKIQPGKVVVFIKPTCPYCRRAQEILSQLPIKQGLLEFVDITATNHTNEIQDYLQQLTGARTVPRVFIGKDCIGGCSDLVSLQQSGELLTRLKQIGALQGSGSGGMHNNRLQLSRLERVYQSEQAEKLLLAGVMLRDPARFDLRGSLTHGRDVEIDTNVIIEGNVSLGNRVKIGTGCVIKNSAIGDDCEISPYTVVEDAVLAAACTIGPFARLRPGAVLLEGAHVGNFVEMKKAVLGKGSKAGHLTYLGDAAIGDNVNIGAGTITCNYDGANKFTTIIGDDVFVGSDTQLVAPVSVGKGATIAAGTTVTRNVGANALAISRVPQTQKEGWRRPVKKK

Molecular target: the molecule itself
Test: sizes of crystals observed in the pellet; negative-stain EM (self-assembly)

Binding result, binds:
B1
B2
B3
B4
B5
B6
B7
B8
B9
B10
B11
B12
B13
B14
B15
B16
B17

Molecular target: the molecule itself
Test: self-assembly of fusion trimers; negative-stain EM of E. coli pellet
Procedure: Synthetic genes of each fusion were obtained and protein was expressed in Escherichia coli cells using a standard T7 based expression vector (Table 2). The protein expression was verified by sodium dodecyl sulfate polyacrylamide gel electrophoresis (SDS-PAGE) after separation of the soluble and insoluble cell portions. Samples of observed protein in the cellular pellets were analyzed for array formation by negative-stain Transmission Electron Microscopy (TEM). […] It is worth noting that 5/7 of the remaining fusions either shared a similar sequence and unknown but potentially similar structures (2 unpublished binding proteins) or were either the same molecular weight or much larger than the p3Z-42 monomer protein (3 proteins between ˜25-35 kDa).
On the basis of these initial hits, the general properties of the proteins that crystallized, specifically molecular weight, were evaluated. 16 further fusions were identified based either on smaller molecular weight sizes (13 proteins between 9 and 13 kDa) or other important targets close to this molecular weight range (3 proteins between 14 and 17 kDa). These second screen fusions were genetically fused and checked for array formation as before. […]

Binding result, binds:
B18
B19

Reference: patent US20160369264A1 (HOWARD HUGHES MEDICAL INSTITUTE, published 2016)
